Experimental findings from patent EP1674110A1 (NOVO NORDISK A/S, dated 2000) are described below.

For experiment [1], the target named is T1, bovine pancreatic trypsin inhibitor (bovine, UniProt P00974 36-93). Nature of the experiment: scintillation proximity assay with 125I-BPTI. (SPA uses beads or plates that emit light when radiolabelled molecules are held near them.)
Experiment [2] concerns the target T1, bovine pancreatic trypsin inhibitor. The experiment can be described thus: not described.

B1: native human heparin-binding protein (other)
chain: IVGGRKARPRQFPFLASIQNQGRHFCGGALIHARFVMTAASCFQSQNPGVSTVVLGAYDLRRRERQSRQTFSISSMSENGYDPQQNLNDLMLLQLDREANLTSSVTILPLPLQNATVEAGTRCQVAGWGSQRSGGRLSRFPRFVNVTVTPEDQCRPNNVCTGVLTRRGGICNGDGGTPLVCEGLAHGVASFSLGPCGRGPDFFTRVALFRDWIDGVLNNPGP
notes: also called HBP; hHBP
B1: the binding result in experiment [1] is “binds”.

B2: [G175Q]HBP (other)
chain: IVGGRKARPRQFPFLASIQNQGRHFCGGALIHARFVMTAASCFQSQNPGVSTVVLGAYDLRRRERQSRQTFSISSMSENGYDPQQNLNDLMLLQLDREANLTSSVTILPLPLQNATVEAGTRCQVAGWGSQRSGGRLSRFPRFVNVTVTPEDQCRPNNVCTGVLTRRGGICNGDQGTPLVCEGLAHGVASFSLGPCGRGPDFFTRVALFRDWIDGVLNNPGP
notes: also called [G175Q]HBP mutant
As for B2, the binding result in experiment [1] is “no binding”.

B3: HBP mutant (G175N) (other)
chain: IVGGRKARPRQFPFLASIQNQGRHFCGGALIHARFVMTAASCFQSQNPGVSTVVLGAYDLRRRERQSRQTFSISSMSENGYDPQQNLNDLMLLQLDREANLTSSVTILPLPLQNATVEAGTRCQVAGWGSQRSGGRLSRFPRFVNVTVTPEDQCRPNNVCTGVLTRRGGICNGDNGTPLVCEGLAHGVASFSLGPCGRGPDFFTRVALFRDWIDGVLNNPGP
For the molecule B3, the binding result in experiment [2] is listed as “no binding”.

B4: [R23S,F25E]HBP (other)
chain: IVGGRKARPRQFPFLASIQNQGSHECGGALIHARFVMTAASCFQSQNPGVSTVVLGAYDLRRRERQSRQTFSISSMSENGYDPQQNLNDLMLLQLDREANLTSSVTILPLPLQNATVEAGTRCQVAGWGSQRSGGRLSRFPRFVNVTVTPEDQCRPNNVCTGVLTRRGGICNGDGGTPLVCEGLAHGVASFSLGPCGRGPDFFTRVALFRDWIDGVLNNPGP
notes: Expressed in sf9 insect cells; also called [R23S,F25E]HBP mutant
For B4, the binding result in experiment [1] is “binds”.
